This data set is described as follows: yeast display, Sf9 membrane polyspecificity reagent, FACS + sequencing; frameworks hold sequencing errors. An outline of the steps:
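Galactose-induced (36–48 hours) yeast carrying a synthetic nanobody display library were exposed to 10% biotinylated, detergent-solubilized Sf9 membrane reagent at 4 °C for 1 hour. FACS followed streptavidin microbead enrichment, using low and high (top ~1%) gates for expression (anti-HA) and reagent binding (streptavidin). Colony PCR, MiSeq 2 × 250 sequencing and CDR-length filtering followed. Labels for polyreactivity reflect the gate of origin.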
Turning to “QVQLVESGGGLVQAGGSLRLSCAASGRIFLSNAMGWYRQAPGKERELVAAISLSGGRTYYADSVKGRFTISRDNAKNTVYLQMNSLKPEDTAVYYCAAEFYPIRYYGRYDYWGQGTQVTVSS”, the “polyreactivity (PSR sort gate)” value was “low polyreactivity”.
The result for “QVQLVESGGGLVQAGGSLRLSCAASGSILDIYAMGWSRQAPGKERELVAGMSTTGGSTYYADSVKGRFTISRDNAKNTVYLQMNSLKPEDTAVYYCAKDYGYQGHTRTLYWAYLEYDYWGQGTQVTVSS” reads “low polyreactivity”; that for “QVQLVESGGGLVQAGGSLRLSCAASGIIFWSYVMGWYRQAPGKERELVAAITFSGGSTYYADSVKGRFTISRDNAKNTVYLQMNSLKPEDTAVYYCAARYKLVRRYDYWGQGTQVTVSS”, “low polyreactivity”.
The result for “QVQLVESGGGLVQAGGSLRLSCAASGRIFYAYVMGWYRQAPGKERELVAAITSSGGSTYYADSVKGRFTISRDNAKNTVYLQMNSLKPEDTAVYYCNARSYPRWLRYDYWGQGTQVTVSS” reads “low polyreactivity”; that for “QVHLVESGGGLVQAGGSLRLSCAASGSIFVLYAMGWYRQAPGKERELVAAISRGVGGTNYADSVKGRFTISRDNAKNTVYLQMNSLKPEDTAVYYCAADWLWAWHYYGAMDYWGQGTQVTVSS”, “high polyreactivity”; that for “QVQLVESGGGLVQAGGSLRLSCAASGFIFSPYAMGWYRQAPGKVRELVAAISRRGGSTYYADSVKGRFTISRDNAKNTVYLQMNSLKPEDTAVYYCAAVYGASQVDYDYWGQGTQVTVSS”, “high polyreactivity”.
“QVQLVESGGGLVQAGGSLRLSCAASGFTFYSYAMGWYRQAPGKERELVAAISRSGGSTRYADSVKGRFTISRDNAKNTVYLQMNSLKPEDTAVYYCNAGKYRAYDYWGQGTQVTVSS”: the “polyreactivity (PSR sort gate)” value was “high polyreactivity”.
As for “QVQLVESGGGLVQAGGSLRLSCAASGRTLWSYVMGWYRQAPGKERELVAAITSGGTTYYADSVKGRFTISRDKAKNTVYLQMNSLKPEDTAVYYCAAGKYYLRLLPYGYWGQGTQVTVSS”, the “polyreactivity (PSR sort gate)” value was “high polyreactivity”.
The result for “QVQLEESGGGLVQAGGSLRLSCAASGRIFYFNTKGWYRQAPGKERELVAAISRSGTSTYYADSVKGRFTISRDFAKNTVYLQMNSLKPEDTAVYYCAARFGVKRGQYDYWGQGTQVTVSS” reads “high polyreactivity”; that for “QVQLVESGGGLVQAGGSLRLSCAASGYTFGSYAMGWYRQAPGKERELVAAITRRGGSTYYADSVKGRFTISRDNAKNTVYLQMTSLKPEDTEVYYCAKRSRDYVSSFLTSHANDYWGQGTQVTVSS”, “high polyreactivity”; that for “QVQLEESGGGIVQAGGSLRLSCASSGFIFKAYAMVWSRQAPGKERDLVAVITGSSGRTYADSVKGRFTISRDNAKNTVYLQMNSLKPEDTAVYYCAADLRKSKYRYWRRYDYWGQGTQVTVSS”, “high polyreactivity”.
The result for “QVQLVESGGGLVQAGGSLRLSCAASGSIFDSNAMGWYRQAPGKERELVADIRGIGGSTYYADSVKGRFTISRDNAKNTVYLQMNSLKPEDTAVYYCNTSTLGGYYWGQGTQVTVSS” reads “low polyreactivity”; that for “QVQLVESGGGLVQAGGSLRLSCDASGSIFAPNSMGWYRQAPGKERELVAAITSSGCRTYYADSVKGRFTISRDNAMNTFYLQMNSLKPVDSAVYYWIAGFYVRRDYDYWGQGTQVTVSS”, “low polyreactivity”.
Take “HDQHVESAGGLVQAGGSLRLSCAASGFILRWYAMGWYRQAPGKERELVAAISWSGGSTYYADSVKGRFTISRDNAKNTVYLQMNSEKPEVTAVYYCNAVNYRNKYDYWGQGTQVTVSS”: the “polyreactivity (PSR sort gate)” value was “high polyreactivity”.
The result for “QVQLVESGGGLVQAGGSLRLSCAASGFIFRQNAMGWYRQAPGKERELVAAISGSGGRTYYADSVKGRFTISRDTAKNTVYLQMNSLKPEDTAVYYCAAQYVTSRFDYWGQGTQVTVSS” reads “high polyreactivity”.
The result for “QVQHVESGGGLVQAGGSLRLSCAASGTIFTVYAMGWYRQAPGKERELVAAITRNGGRTYYADSVKGRFTISRDNAKNTVYLQMNSLKPEDTAVYFCAAPGLYSRLDYWGQGTQVTVSS” reads “high polyreactivity”; that for “QVQIVESGGGLVQAGGSLRLSCAASGRTVVYNSMGWYRQAPGKERELVAAITRSGDSSYYADSVKGRFSISRDNAKNPVYLQMNSLKPEDTAVYYCNAVSKRYWLMDYWGQGTQVTVSS”, “high polyreactivity”.
The result for “QVQLVESGGGLVQAGGSLRLSCAASGRIFYSYAMGWYRQAPGKERELVARITRGSSTYYADSVKGRFTISRDNAKNTVYLQMNSLKPEDTAVYYCAAAVYFQVAFAYYYWGQGTQVTVSS” reads “low polyreactivity”; that for “QVQLVESGGGLVQAGGSLRLSCAASGRTFTQYAMGWYRQAPGKERELVAAISWRGGSTYYADSVKGRFTISRDNAKNTVYLQMNSLKPEDTAVYYCAKRYFRGYPLYDYWGQGTQVTVSS”, “high polyreactivity”; that for “QVQLVESGGGLVQAGCILRLSCAASGFTFSWYAMGWYRQARGKERELVAAISYSGDSTYYADSVKGRFTISRDNAKNTVYLQMNSLKPEDTAVYYCARRSYYATYYPQPFGYNYLGQGTQVTVSS”, “high polyreactivity”.
As for “QVQLVESGGGIVQAGGSLRLSSAASGRIFDTNAMGWYRQAPGKERELVAAITGRGGGTYYADSVKGRFTISRDNAKNTVYLQMNSLKPEDTAVYYCNAFAPIYRHYSWGSGLDYWGQGTLVTVSS”, the “polyreactivity (PSR sort gate)” value is “high polyreactivity”.
“QVQLVESGGGLGQAGGRLRLTCAASGFTFRPYDMGWYRQAPGKERELVAVIIGGDSTNYADSVQGRFTISRDNAKNTVYLQMNSLKPEDTAVYYCAADYIDRVGWMDYWGQGTQVTVSS”: the “polyreactivity (PSR sort gate)” value is listed as “low polyreactivity”.
For the sequence “QVQLVESGGGLVQAGGSLRLSCAASASIYAHYEMGWYRQAPGKERELVAAITASGGTTYYADSVKGRFTISRDNAKNTVYLQMNSLKPEDTAVYYCNAGKRTFLYDRDDYWGQGTQVTVSS”, the “polyreactivity (PSR sort gate)” value is “high polyreactivity”.
The result for “QVQLVESGGGLVQAGGSLRLSCAASGRIFEVYAMGWYRQAPGKERELVAAITSSGGSRTYYADSVKGRFTISRDNAKNTVYLQMNSLKPEDTAVYYCAASTHRGRYKRYDYWGQGTQVTVSS” reads “high polyreactivity”.
The result for “QVQLVESGGGLVQAGGSLRLSCAASGGIFDTYAMGWYRQAPGKERELVAAISSTGGSTYYADSVKGRFTISRDNAKNTVYLQMNSLKPEDTAVYYCNAVLARFWRYRRWEYDYWGQGTQVTLSS” reads “high polyreactivity”; that for “QVQLVESGGGLVQAGGSLRLSCAASGFIFKGYAMGWYRQSPGKERELVAVISTSGDRTYYADSVKGRFTISRDNAKNTVYLQMNSLKPEDTAVYYCAAKASPYGGRQKGYDYWGQGTQVTVSS”, “high polyreactivity”.
The result for “QVQLVESGGGLVQAGGSLRLSCADSGSISYYAIGWYRQAPRKESELVAAISSSGGSTYYADSVNGRFTISRDNAKNTVYLQMNSLKPEDTAVYYCAAAVTGCYASDYWGQGTQVTVSS” reads “high polyreactivity”; that for “QVQLEESGGGLVQAGGSLPLSCASSGRIFCVYAMGWYRQAPGKESELVATITSGGSTSYADSVKGRFTISRDNANYTVYLLMNSLKPEDTAVYYCNGPYSFFWQQMNYWGHGTQVTVSS”, “low polyreactivity”.
Consider “QVQLVETGGGLVQAGGSLRLSCDASGSTFVRYVMGWYRQAPGKERELVAAISRRGGSTYYADSVKGRFTISRANAKNTVYLQMNSLKPEDNAVYYCAGRGGRYFPYHGTIRYDYWGQCTQVTVSS”, for which the “polyreactivity (PSR sort gate)” value is given as “high polyreactivity”.
The result for “QVQLVESGGGLVQAGGSLRLSCAASGLIFKYYAMGWYRQAPGKERELVAAITGRGGSTYYADSVKGRFTISRDNAKNTVYLQMNSLKPEDTAVYYCARRRTYSFNPVTYDWGQGTQVTVSS” reads “high polyreactivity”; that for “QVQLVESGGGLVQAAGSLRLSCAASGITFSRNGMGWYRQAPGKERELFAAISTSGDSTDYADSVKGRFTISRDNAKNTVYLQMNSLKPEDTAVYYCNRDFSLVVHYKFDYWGQGTQVTVSS”, “low polyreactivity”; that for “QVQLVESGGGLVQAGGSLRLSCAASGRTFGYYAMGWYRQAPGKERELVASISWIGDDTYYADSVKGRFTISRDYAKNTVYLQMNSLKPEDTAVYYCNAVYAGRYFGFDYWGQGTQVTVSS”, “high polyreactivity”.
The result for “QVQLVESGGGLVQEGGSLRLSCAASGGTFYNYAMGWYRQAPGKERELVAAITYSGGITYYADSVKGRFTISRDNAKNTVYLQMNRLKPEDTAVYYCAADGYGNYDQYGYWGQGTQVTVSS” reads “low polyreactivity”; that for “QVQLVESGGGLVQAGGSLRLSCAASGIIFVKYTMGWYRQAPGKERELVAAITRGGSTYYADSVKGRFTISRDNAKNTVYLQMNSLKPEDTAVYYCAAAWYQYFVPGYRGYTYYYWGQGTQVTVSS”, “high polyreactivity”.
In the case of “QVQLVESGGGLVQAGGSLRLSCAASGLTFGNNAMGWYRQAPGKERELVAAISSDGTTYYADSVKGRFTISRDNAKNTVYLQMNSLKPEDTAVYYCNAAAEISSFDYDYWGQGTQVTVSS”, the “polyreactivity (PSR sort gate)” value is reported as “low polyreactivity”.
In the case of “QVQLGESGGGLVQAGVSLRLSCAASGRTFGSYAMGWYRQAPGKESEMVAVISWSGGITYYADSVKGRFTISRDNAKNTVYLQMNSLKPEDTAVYYCAASPRRDENAGRVRLYYWGQGTQVTVSS”, the “polyreactivity (PSR sort gate)” value is reported as “high polyreactivity”.
In the case of “QVQLVDSGGGLVQAGGSLRLSCAASVITFGYYAMGWYRQAPGKERELVAAISRSGGNTRYADSVKGRFTISRDNAKNTVYLQMNSLKTDDTAVYYCAKRTTYSDDYWGQGTQVTVSS”, the “polyreactivity (PSR sort gate)” value was “high polyreactivity”.
The result for “QVQLVESGGGLVQAGGSLRLSCAASGFTFAYYAMGWYRQAPGKERELVAAISERGGSTYYADSVKGRFTISRDNAKNTVYLQMNSLKPEDTAVYYCARTFWDYPWYQSSYYSWGQGTQVTVSS” reads “low polyreactivity”; that for “QLQLVESGGGLVQAGGSLRLSCASSGRIFRYNAMGWYRQAPGKERELVAVISGSGGSTYYADSVKGRFTISRDNAKNTVYLQMNSLKPEDTAVYYCAAQFHVSWYNYWGQGTQVTVSS”, “low polyreactivity”; that for “QVQLVESGGGLVQAGGSLRLSCAASGSIFATYGMGWYRQAPGKERELVAAITSSGGSTYYADSVKGRFTISRDNAKNTVYLQMNSLKPEDTAVYYCAADSYIIWYGTVVSYGEDSWGQGTQVTVSS”, “low polyreactivity”.

The values are drawn from the nanobody polyreactivity screen of Harvey et al. (2022).
